Results on 4 molecules are retold here after article doi:10.1101/2025.04.25.650734 (bioRxiv, 2025).

Holding throughout (assay): single-particle TIRF colocalisation with photobleaching step counting
The target in series [1] is mTFP-K-K, dimer of linked wild type Kir2.1 subunits.
Series [2] has as its target mTFP-Q-K-K-Q tetramer of concatenated Kir2.1 subunits.
The target of series [3] is mTFP-K-Q-K-Q tetramer of concatenated Kir2.1 subunits.
Series [4] deals with mTFP-Q-K-Q-Q tetramer of concatenated Kir2.1 subunits.
Series [5] concerns the target mTFP-K-K-K-K, linked tetramer of wild type Kir2.1 subunits.
In series [6] the target is tetrameric Kir2.1 construct with three SUMO1 binding sites.
Series [7] addresses mTFP-K-Q, dimer of a wild type Kir2.1 subunit linked to a Kir2.1-K49Q subunit.
Series [8] deals with the molecule itself.

Take “mCherry-SUMO1 (from UniProt P63165-1 1-97) (natural protein)”: the stoichiometry N (SUMO1 monomers per channel) was 2 in series [1]; 1 in series [2]; 2 in series [3]; 1 in series [4]; 2 in series [5]; 2 in series [6]. For the same molecule, the stoichiometry N (SUMO1 monomers per channel) in series [7] was 2.

Take “mTFP-K-K, dimer of linked wild type Kir2.1 subunits”: the stoichiometry N in series [1] worked out at 2.

“mTFP-K-Q, dimer of a wild type Kir2.1 subunit linked to a Kir2.1-K49Q subunit” showed a stoichiometry N in series [7] of 2.

B1: mTFP1-tagged Kir2.1 (natural protein)
chain: MGSVRTNRYSIVSSEEDGMKLATMAVANGFGNGKSKVHTRQQCRSRFVKKDGHCNVQFINVGEKGQRYLADIFTTCVDIRWRWMLVIFCLAFVLSWLFFGCVFWLIALLHGDLDASKESKACVSEVNSFTAAFLFSIETQTTIGYGFRCVTDECPIAVFMVVFQSIVGCIIDAFIIGAVMAKMAKPKKRNETLVFSHNAVIAMRDGKLCLMWRVGNLRKSHLVEAHVRAQLLKSRITSEGEYIPLDQIDINVGFDSGIDRIFLVSPITIVHEIDEDSPLYDLSKQDIDNADFEIVVILEGMVEATAMTTQCRSSYLANEILWGHRYEPVLFEEKHCYKVDYSRFHKTYEVPNTPLCSARDLAEKKYILSNANSFCYENEVALTSKEEEDSENGVPESTSTDSPPGIDLHNQASVPLEPRPLRRESEI
B1: in series [8], the “stoichiometry N” value turned out to be 4.
